From WO2025083273A1 (dated 2025)
Substitutions are numbered along the chain they refer to.

T1: human DR3 (TNFRSF25) expressed on cells (human, UniProt Q93038 25-417)
T1 sequence: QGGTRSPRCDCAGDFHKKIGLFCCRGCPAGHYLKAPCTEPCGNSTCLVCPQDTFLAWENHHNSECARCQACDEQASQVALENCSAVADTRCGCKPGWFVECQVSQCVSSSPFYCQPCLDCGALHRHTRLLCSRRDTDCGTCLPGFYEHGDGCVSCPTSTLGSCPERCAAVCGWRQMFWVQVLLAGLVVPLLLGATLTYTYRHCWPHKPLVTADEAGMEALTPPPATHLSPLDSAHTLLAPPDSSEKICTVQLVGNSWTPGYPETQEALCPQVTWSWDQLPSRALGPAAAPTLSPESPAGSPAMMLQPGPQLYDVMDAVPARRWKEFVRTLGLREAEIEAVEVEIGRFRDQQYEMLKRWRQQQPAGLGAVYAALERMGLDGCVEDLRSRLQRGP

T2: DR3-8i (human)
T2 construct: also called purified monomeric DR3-8i antigen protein
T2 chain: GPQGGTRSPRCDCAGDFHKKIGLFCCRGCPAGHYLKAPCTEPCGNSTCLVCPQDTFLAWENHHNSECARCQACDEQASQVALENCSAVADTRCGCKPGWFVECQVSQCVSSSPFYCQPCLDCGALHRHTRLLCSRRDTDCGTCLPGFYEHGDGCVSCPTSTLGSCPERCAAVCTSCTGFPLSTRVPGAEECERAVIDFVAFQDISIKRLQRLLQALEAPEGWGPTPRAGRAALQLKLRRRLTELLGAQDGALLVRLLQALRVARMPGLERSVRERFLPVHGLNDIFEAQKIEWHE

B1: VHg9/VLg11 (antibody, human IgG1, V domains shown)
VH: EVQLVESGGGLVKPGGSLRLSCAASGFTFSSYAMSWVRQAPGKGLEWVSTISDGDSYSYFPDSVKDRFTISRDNAKNSLYLQMNSLRAEDTAVYYCARDRIYGSVQYYAMDYWGQGTLVTVSS
VL: DIVMTQSPDSLAVSLGERATINCRASESVEFSGTSLMQWYQQKPGQPPKLLIYAASNVESGVPDRFSGSGSGTDFTLTISSLQAEDVAVYYCQQSRKLPYTFGQGTKLEIK
notes: human IgG1
B2: VHg2/VLg11 (antibody, human IgG1, V domains shown)
VH: B1 VH with E1Q, V2M, E6Q, V37I, A97T, Q115R
VL: B1 VL
notes: human IgG1
B3: VHg3/VLg11 (antibody, human IgG1, V domains shown)
VH: B1 VH with E6Q, T28K, V48L, T69I, A88V, A92G
VL: B1 VL
notes: human IgG1
B4: VHg6/VLg4 (antibody, human IgG1, V domains shown)
VH: B1 VH with E1Q, V5Q, E6Q, K13Q, S49A, K76R, Q115R
VL: B1 VL with I2V, N22S, G45R, P48L, K107R
notes: human IgG1
B5: VHg10/VLg4 (antibody, human IgG1, V domains shown)
VH: B1 VH with K13Q, A75S, S78T
VL: B1 VL with I2V, N22S, G45R, P48L, K107R
notes: human IgG1
B6: VHg10/VLg11 (antibody, human IgG1, V domains shown)
VH: B1 VH with K13Q, A75S, S78T
VL: B1 VL
notes: human IgG1
B7: VHg1/VLg12 (antibody, human IgG1, V domains shown)
VH: B1 VH with E1Q, E6Q, K13Q, A75S, S78T, A92S
VL: EIVLTQSPATLSLSPGERATLSCRASESVEFSGTSLMQWYQQKPGQAPRLLIYAASNVESGIPARFSGSGSGTDFTLTISSLEPEDFAVYYCQQSRKLPYTFGQGTKLEIK
notes: human IgG1
B8: VHg2/VLg12 (antibody, human IgG1, V domains shown)
VH: B1 VH with E1Q, V2M, E6Q, V37I, A97T, Q115R
VL: B7 VL
notes: human IgG1
B9: VHg9/VLg2 (antibody, human IgG1, V domains shown)
VH: B1 VH
VL: DIQLTQSPSSLSASVGDRVTITCRASESVEFSGTSLMQWYQQKAGLAPKLLIYAASNVESGVPSRFSGSGSGTDFTLTISSLQPEDFGTYYCQQSRKLPYTFGQGTRLEIK
B10: VHg3/mVL (antibody, human IgG1, V domains shown)
VH: B1 VH with E6Q, T28K, V48L, T69I, A88V, A92G
VL: DIVLTQSPASLAVSLGQRATISCRASESVEFSGTSLMQWYQQRPGLPPKLLIYAASNVESGVPARFSGSGSGTDFSLNIHPVEEDDIAMYFCQQSRKLPYTFGGGTKLEIN
B11: VHg6/VLg5 (antibody, human IgG1, V domains shown)
VH: B1 VH with E1Q, V5Q, E6Q, K13Q, S49A, K76R, Q115R
VL: B7 VL with A9G, A19G, A64D, G72E, S81R, F87L, K107R
B12: VHg10/VLg2 (antibody, human IgG1, V domains shown)
VH: B1 VH with K13Q, A75S, S78T
VL: B9 VL
B13: VHg1/VLg13 (antibody, human IgG1, V domains shown)
VH: B1 VH with E1Q, E6Q, K13Q, A75S, S78T, A92S
VL: B9 VL with L4M, A44P, L46K, L77F, F87I, G88A, R107K
B14: VHg5/mVL (antibody, human IgG1, V domains shown)
VH: B1 VH with E1Q, V5Q, E6Q, K13Q, P14A, S30T, S49A, T69I, Y80F, Q115R
VL: B10 VL
B15: VHg6/mVL (antibody, human IgG1, V domains shown)
VH: B1 VH with E1Q, V5Q, E6Q, K13Q, S49A, K76R, Q115R
VL: B10 VL
B16: VHg2/mVL (antibody, human IgG1, V domains shown)
VH: B1 VH with E1Q, V2M, E6Q, V37I, A97T, Q115R
VL: B10 VL
B17: VHg10/VLg1 (antibody, human IgG1, V domains shown)
VH: B1 VH with K13Q, A75S, S78T
VL: B1 VL with I2V, A88V, Q104G, L108V
B18: VHg2/VLg5 (antibody, human IgG1, V domains shown)
VH: B1 VH with E1Q, V2M, E6Q, V37I, A97T, Q115R
VL: B7 VL with A9G, A19G, A64D, G72E, S81R, F87L, K107R
B19: VHg9/mVL (antibody, human IgG1, V domains shown)
VH: B1 VH
VL: B10 VL
B20: VHg3/VLg1 (antibody, human IgG1, V domains shown)
VH: B1 VH with E6Q, T28K, V48L, T69I, A88V, A92G
VL: B1 VL with I2V, A88V, Q104G, L108V
B21: VHg9/VLg13 (antibody, human IgG1, V domains shown)
VH: B1 VH
VL: B9 VL with L4M, A44P, L46K, L77F, F87I, G88A, R107K
B22: VHg3/VLg5 (antibody, human IgG1, V domains shown)
VH: B1 VH with E6Q, T28K, V48L, T69I, A88V, A92G
VL: B7 VL with A9G, A19G, A64D, G72E, S81R, F87L, K107R
B23: VHg1/mVL (antibody, human IgG1, V domains shown)
VH: B1 VH with E1Q, E6Q, K13Q, A75S, S78T, A92S
VL: B10 VL
B24: VHg5/VLg5 (antibody, human IgG1, V domains shown)
VH: B1 VH with E1Q, V5Q, E6Q, K13Q, P14A, S30T, S49A, T69I, Y80F, Q115R
VL: B7 VL with A9G, A19G, A64D, G72E, S81R, F87L, K107R
B25: VHg9/VLg6 (antibody, human IgG1, V domains shown)
VH: B1 VH
VL: DVVMTQSPPSLPVTPGEPASISCRASESVEFSGTSLMQWYLQKPGQSPQVLIYAASNVESGVPDRFSGSGSGTDFTLKISRVEAEDVGVYYCQQSRKLPYTFGQGTRLEIK
B26: VHg1/VLg5 (antibody, human IgG1, V domains shown)
VH: B1 VH with E1Q, E6Q, K13Q, A75S, S78T, A92S
VL: B7 VL with A9G, A19G, A64D, G72E, S81R, F87L, K107R
B27: VHg9/VLg1 (antibody, human IgG1, V domains shown)
VH: B1 VH
VL: B1 VL with I2V, A88V, Q104G, L108V

What follows are binders tested against T1, human DR3 (TNFRSF25) expressed on cells (assay: cell-based or functional assay).

Binder	EC50 (pM), DR3 Jurkat reporter [pM]	Signal (FLU)
B1	261	3.27e+06
B2	136	2.9e+06
B3	1230	2.38e+06
B4	115	2.68e+06
B5	570	3.17e+06
B6	245	3.24e+06
B7	322	2.76e+06
B8	117	2.68e+06
B9	–	2.88e+06
B10	–	2.86e+06
B11	–	2.85e+06
B12	–	2.84e+06
B13	–	2.81e+06
B14	–	2.69e+06
B15	–	2.6e+06
B16	–	2.57e+06
B17	–	2.54e+06
B18	–	2.52e+06
B19	–	3.35e+06
B20	–	2.46e+06
B21	–	3.33e+06
B22	–	2.43e+06
B23	–	2.43e+06
B24	–	2.42e+06
B25	–	2.32e+06
B26	–	1.99e+06
B27	–	2.23e+06

Target: T2, DR3-8i
Test: BLI, IgG captured on protein A, DR3-8i in solution; Experiment 2

Binder	Kd [nM]
B1	0.184
B2	0.0435
B3	0.618
B4	0.146
B5	0.167
B6	0.244
B7	0.0445
B8	0.177

Target: T2, DR3-8i
Test: BLI, IgG captured on protein A, DR3-8i in solution; Average

Binder	Kd [nM]
B1	0.188
B2	0.0536
B3	0.491
B4	0.198
B5	0.204
B6	0.205
B7	0.0228
B8	0.121

Target: T2, DR3-8i
Test: BLI, IgG captured on protein A, DR3-8i in solution; Experiment 1

Binder	Kd [nM]
B1	0.192
B2	0.0636
B3	0.364
B4	0.25
B5	0.242
B6	0.166
B7	0.001
B8	0.0644
